This data set can be described thus: yeast display, Sf9 membrane polyspecificity reagent, FACS + sequencing; frameworks hold sequencing errors. The procedure, abridged: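 After 36–48 hours of galactose induction, yeast (Saccharomyces cerevisiae BJ5465) displaying a synthetic nanobody library were stained at 4 °C for 1 hour with 10% biotinylated, detergent-solubilized Sf9 membrane reagent. Streptavidin microbeads enriched the stained cells before FACS sorting into low and high (top ~1%) gates on anti-HA and streptavidin fluorescence. Each clone's polyreactivity label reflects its gate of origin.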
With “QVQLVESGGGLVQAGGSLRLSCAASGSTFFLYAMGWYRQAPGKERELVAVITWRGGRTYYADSVKGRFTISRDNAKNTVYLQMNSMKPEDTAVYYCAAEYYWPVKYYYWGQGTQVTVSS”, the “polyreactivity (PSR sort gate)” value is “high polyreactivity”.

As to “QVQLVESGGGLVQAGGSLRLSCAASGSTFFNYAMGWYRQAPGKERELVAAITGSGGRTYYADSVKGRFTISRDNAKNTVYLQMNSLKPEDTAVYYCAASATYDPHDYWGQGTQVTVSS”, the “polyreactivity (PSR sort gate)” value is reported as “high polyreactivity”.

For “QVQLVESGGGLVQAGGSLRLSCAASGSTFFPNGMGWYRQAPGKERELVAAITQDGGSTYYADSVKGRFTISRDKAKNTVYLQMNSLKPEDTAVYYCAASAGPYYEYGYWGQGTQVTVSS”, the “polyreactivity (PSR sort gate)” value is given as “low polyreactivity”.

Consider “QVQLVESGGGLVQAGGSLRLSCAASGSTFFPYAMGWYRPAPGKERELVAAIRWSGGRTYYADSVKGRFTISRDNAKNTVYLQMNSLKPEDTAVYYCAADKYLDYDYWGQGTQVTVSS”, for which the “polyreactivity (PSR sort gate)” value is “high polyreactivity”.

Turning to “QVQLVESGGGLVQAGGSLRLSCAASGSTFFPYAMGWYRQAPGKERELVATINYSGGGTYYADSVKGRFTISRDNAKNTVYLQMNSLKPEDTAVYYCANTLARFDRGYYWGQGTQVTVSS”, the “polyreactivity (PSR sort gate)” value is listed as “low polyreactivity”.

Take “QVQLVESGGGLVQAGGSLRLSCAASGSTFFQYAMGWYRPAPGKERELVAAITTSGGRTYYADSVKGRFTISRDNAKNTVYLQMNSLKPEDTAVYYCAGYNYWGQGTQVTVSS”: the “polyreactivity (PSR sort gate)” value is given as “high polyreactivity”.

For the sequence “QVQLVESGGGLVQAGGSLRLSCAASGSTFFRNAMGWYRQAPGKERELVAGITSGVTTYYADSVKGRFTISRDNAKNTVYLQMNSLKPEDTAVYYCAVYWRGRGAFTYGSWGQGTQVTVSS”, the “polyreactivity (PSR sort gate)” value is recorded as “high polyreactivity”.

For the sequence “QVQLVESGGGLVQAGGSLRLSCAASGSTFFRYAMGLYRQAPGKEREFVAAITSSGGNTYYADSVKGRFTISRDNAKNTVYLQMNSLKPEDTAVYYCAAVWYSPYVKYNYWGQGTQVTVSS”, the “polyreactivity (PSR sort gate)” value is listed as “low polyreactivity”.

For “QVQLVESGGGLVQAGGSLRLSCAASGSTFFRYAMGWYRQAPGKEREFVAAISKRGGSTHYADSVKGRFTISRDNAKNTVYLQMNSLKPEDTAVYYCAASSFTSSYNYWGQGTQVTVSS”, the “polyreactivity (PSR sort gate)” value is recorded as “high polyreactivity”.

For “QVQLVESGGGLVQAGGSLRLSCAASGSTFFSNTMGWYRQAPGIERELVAAITSRGGRTYYADSVKGRFTISRDNAKNSVYLQMNSLKPEDTAVYYCAARFVLHGVYLKFYWGQGTQLTVSS”, the “polyreactivity (PSR sort gate)” value is listed as “high polyreactivity”.

Consider “QVQLVESGGGLVQAGGSLRLSCAASGSTFFSYDMGWYRQAPGKERELVATISTSVGRTYYADSVKGRFTISRDNAKNTVYLQMNSLKPEDTAVYYCATVGYLYTPVVVTWWDWGDYWGQGTQVTVSS”, for which the “polyreactivity (PSR sort gate)” value is given as “low polyreactivity”.

As for “QVQLVESGGGLVQAGGSLRLSCAASGSTFFSYVMGWYRQAPGKERELVAAISNGGSTYYADSVKGRFTISRDNAKNSVYLQMNSLKPEDTAVYYCAAGGRRKRGNYWGQGTQVTVSS”, the “polyreactivity (PSR sort gate)” value is listed as “high polyreactivity”.

In the case of “QVQLVESGGGLVQAGGSLRLSCAASGSTFFTNVKGWYRQAPGKERELVAVIRWRGSDTYYADSVKGRFTISRDNAKNTVYLQMKSLKPEDTAFYYCNAKESFYPTTGEQGYSYAYWGQGTQLTVSS”, the “polyreactivity (PSR sort gate)” value is recorded as “low polyreactivity”.

In the case of “QVQLVESGGGLVQAGGSLRLSCAASGSTFFTYTMGWYRQAPGKERELVAAISSGGSTYYADSVKGRFTISRDNAKNTVYLQMNSLKPEDTAVYYLLRGQGTQVTVSS”, the “polyreactivity (PSR sort gate)” value is “low polyreactivity”.

On to “QVQLVESGGGLVQAGGSLRLSCAASGSTFFVNAMGWYRQAPGKERELVASITVSSGRTYYADSVKGRFTISRDNAKNTVYLQMNSLKPEDTAVYYCAARHLYWRREGYYWGQGYQVTVSS”, for which the “polyreactivity (PSR sort gate)” value is given as “high polyreactivity”.

In the case of “QVQLVESGGGLVQAGGSLRLSCAASGSTFFWYAMGWYRQEPGKERELVAAINWRGDRTYYADSVKGRFTISRDNAKNTVYLQMNSLKPEDTAVYYCNAVRVHAYSTGEYGYWGQGTQVTVSS”, the “polyreactivity (PSR sort gate)” value is “high polyreactivity”.

As to “QVQLVESGGGLVQAGGSLRLSCAASGSTFFYYAMGWYRQAPGKERELVAAITSSGGRTYYADSVKGRFTISRDNAKNTVYLQMNSLKPEDTAVYYCAARDYRQSRYEYWGQGTQVTVSS”, the “polyreactivity (PSR sort gate)” value was “high polyreactivity”.

Take “QVQLVESGGGLVQAGGSLRLSCAASGSTFGANAMGWYRQAPGKEREFVAAISGSGTTTYYADSVKGRFTISRDNAKNTVYLQINSLKPEDTAVYYCAKTRKAHWLEYWGQGTQVTVSS”: the “polyreactivity (PSR sort gate)” value is reported as “low polyreactivity”.

In the case of “QVQLVESGGGLVQAGGSLRLSCAASGSTFGDNAMGSYRQAPGKERELVAAISSGGGSTYYADSVKGRFTISRDNAKNTVYLQMNSLKPEDTAVYYCAADVTLTLYRYILDYWGQGTQVTVSS”, the “polyreactivity (PSR sort gate)” value is “low polyreactivity”.

In the case of “QVQLVESGGGLVQAGGSLRLSCAASGSTFGDNAMGWYRQAPGKERELVAAISSSGDSTYYADSVKGRFTISRDNAKNTVYLQMNSLKPEDTAVYYCAADRGSTAGSVTYTPGNYWGQGTQVTVSS”, the “polyreactivity (PSR sort gate)” value was “low polyreactivity”.

Turning to “QVQLVESGGGLVQAGGSLRLSCAASGSTFGDYAMGWYRQAPGKERELVAAISSSGGSTYYADSVKGRFTISRDNAKNTVYLQMNSLKPEDTAVYYCNADRFLYYARTYWYFWFGYWGQGTQVTVSS”, the “polyreactivity (PSR sort gate)” value is “low polyreactivity”.

For the sequence “QVQLVESGGGLVQAGGSLRLSCAASGSTFGDYDMGWYRQAPGKERELVAAITIGGITTYADSVKGRFTISRDNAKNTVYLQMNSLKPEDTAVYYCAAAERGDWDDYWGQGTQVTVSS”, the “polyreactivity (PSR sort gate)” value is reported as “low polyreactivity”.

In the case of “QVQLVESGGGLVQAGGSLRLSCAASGSTFGDYTMGWYRQAPGKERELVAAISSGGSTYYADSVKGRFTISRDNAKNTVYLQMNSLKPEDTAVYYCAAYTKRYLYNYWGQGTQVTVSS”, the “polyreactivity (PSR sort gate)” value is on record as “high polyreactivity”.

With “QVQLVESGGGLVQAGGSLRLSCAASGSTFGENDRGWSRQEPGKERELVAAITWSGGSTYYADSVKGRFTISRDNAKNTVYLQMNSLKPEDTAVYYCAADRYWIVLYDYWGQGTQVTVSS”, the “polyreactivity (PSR sort gate)” value is listed as “low polyreactivity”.

As to “QVQLVESGGGLVQAGGSLRLSCAASGSTFGEYPMGWYRQAPGKEREFVAAITFSDDSTYYADSVKGRFTISRDNAKNTVYLQMNSLKPEDTAVYYCAAVLSRHYDYWGQGTQVTVSS”, the “polyreactivity (PSR sort gate)” value was “high polyreactivity”.

As to “QVQLVESGGGLVQAGGSLRLSCAASGSTFGFYAMGGYRQAPGKERELVAAITSGDITYADSVKGRFTISRDNAKNTVYLQMNSLKPEDTAVYYCATTSYGYWFGYIPEVDYWGQGTQVSVSS”, the “polyreactivity (PSR sort gate)” value is recorded as “low polyreactivity”.

Regarding “QVQLVESGGGLVQAGGSLRLSCAASGSTFGFYAMGWYRPAPGKERELVAAISWSTTSTYYADSVKGRFTISRDNAKNTVYLQMNSLKPEDTAVYYCAAEEWYLWYYYWGQGTQVTVSS”, the “polyreactivity (PSR sort gate)” value is recorded as “high polyreactivity”.

With “QVQLVESGGGLVQAGGSLRLSCAASGSTFGGYAMGWYRQAPGKEWELVAAISWNGDSTYYADSVKGRFTISRDNAKNTVYLQMNSLKPEDTAVYYCAAPYSGPYRSYEYYWGQGTQVTVSS”, the “polyreactivity (PSR sort gate)” value was “low polyreactivity”.

For the sequence “QVQLVESGGGLVQAGGSLRLSCAASGSTFGGYVMGWYRQAPGKERELVAAIRRVGRTYYADSVKGRFTISRDNAKNTVYLQMNSLKPEDTAVYYCATSYYLAYRSITPYDYWGQGTQVTVSS”, the “polyreactivity (PSR sort gate)” value is “low polyreactivity”.

Consider “QVQLVESGGGLVQAGGSLRLSCAASGSTFGGYVMGWYRQAPGKERELVAAISRSGASTYYADSVKGRFTISRDNAKNTVYLQMNSLKPEDTAVYYCAAYQARGMDYWGQGTQVTVSS”, for which the “polyreactivity (PSR sort gate)” value is “high polyreactivity”.

(Values after the nanobody polyreactivity screen of Harvey et al. (2022).)
